Experimental data taken from article PMC4610412.
Values belong to the binder of their own block, whether it stands above or below them.

Columns and labels:
pCdc25C (Homo sapiens) [1] = assay: NMR titration; conditions: phospho-T5 of peptide (pT48)
FFpSPR = assay: NMR titration; conditions: phospho-S3 of peptide
trans-locked inhibitor = assay: NMR titration; conditions: phospho-S3, trans-locked alkene isostere
pCdc25C (Homo sapiens) [2] = assay: ITC; conditions: phospho-T5 of peptide (pT48)

Kd (pCdc25C (Homo sapiens) [1]): 6 µM
Kd (FFpSPR): 43 µM
Kd (trans-locked inhibitor): 53 µM
B1: Pin1 (WW domain site, full-length Pin1) WW, Q13526 (peptide)
chain: ADEEKLPPGWEKRMSRSSGRVYYFNHITNASQWERPSGNSS

Kd (pCdc25C (Homo sapiens) [2]): 13 µM
B2: Pin1 WW domain (isolated) WW, Q13526 (peptide)
chain: B1 chain
